Assay results: patent CN117990904A

Target: A型FMDV毒株
Test: cell-based or functional assay

B1: A型口蹄疫病毒中和抗体Ab1 (VHH)
VHH: QVQLQESGGGLVQAGGSLRLSCVYSGFTFGHYSMGWYRQAPGKEREFVAAIRRSDGSTDYADSTVKGRFTISRDNAKKTVYLQMNSLKPEDTAVYYCATVRRVATLSGSSSWGQGTQVTVSS
**Q.** For B1, which Neu 50 (病毒中和试验) is on record?
**A.** 1.2 µmol/L
